Experimental data taken from paper PMC12077105, “PASTA kinase signaling regulates peptidoglycan synthesis in Enterococcus faecalis by direct inhibition of UDP-N-acetylglucosamine 1-carboxyvinyl transferase activity” (mBio, 2025).

T1: recombinant MurAB-His6 (E. faecalis, UniProt Q836E5 1-430)
T1 construct: MurAB, UDP-N-acetylglucosamine 1-carboxyvinyl transferase (secondary homolog) of Enterococcus faecalis; wild-type allele amplified from OG1RF genomic DNA; also called secondary UNAG-CTase; source: E. coli C43(DE3), purified
T1 sequence: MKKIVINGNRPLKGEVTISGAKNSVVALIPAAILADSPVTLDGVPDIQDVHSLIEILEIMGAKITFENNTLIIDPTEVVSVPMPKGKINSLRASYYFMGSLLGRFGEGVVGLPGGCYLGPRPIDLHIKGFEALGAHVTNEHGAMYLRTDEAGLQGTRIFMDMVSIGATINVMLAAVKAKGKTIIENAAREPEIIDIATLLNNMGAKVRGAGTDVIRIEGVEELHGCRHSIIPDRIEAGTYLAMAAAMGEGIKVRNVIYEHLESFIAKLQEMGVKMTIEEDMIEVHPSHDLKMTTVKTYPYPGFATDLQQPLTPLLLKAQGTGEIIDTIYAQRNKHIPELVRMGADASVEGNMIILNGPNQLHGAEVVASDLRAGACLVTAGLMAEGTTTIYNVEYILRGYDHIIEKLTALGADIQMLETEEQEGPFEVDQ


Experiments:
[1] = target: recombinant MurAB-His6 (E. faecalis) (UniProt Q836E5); test: thermal shift assay; 2.5 uM MurAB with rising molar ratios of test protein, 10x SYPRO Orange, 50 mM Tris, 25 mM NaCl, pH 7.5; change of the MurAB melt temperature
recombinant MurAB-His6 [2] = target: T1, recombinant MurAB-His6; test: as above; settings: both partners purified
recombinant MurAB-His6 [3] = target: T1, recombinant MurAB-His6; test: cell-based or functional assay

Molecule | maximum shift of the MurAB Tm [1] [°C] | maximum shift of the MurAB Tm (recombinant MurAB-His6 [2]) [°C] | UNAG-CTase activity of purified MurAB (release of inorganic phosphate) with 10-fold molar excess of IreB: decrease of the reaction rate (recombinant MurAB-His6 [3]) [%]
purified recombinant IreB D50A (expressed as His6-SUMO-IreB D50A) (from UniProt Q836B3 1-89) (natural protein) | 1.5 |  | 
purified recombinant wild-type IreB (expressed as His6-SUMO-IreB) (natural protein, IreB of Enterococcus faecalis; wild-type allele amplified from OG1RF genomic DNA; IreB for the enzymatic assays was purified in MOPS buffer; also called unphosphorylated IreB; source: E. coli BL21(DE3), purified (Ni-charged resin)) MGFTDETVRFDFDDNRKKAISETLETVYRALEEKGYNPINQIVGYLLSGDPAYIPRYQDARNLIRRHERDEIMEELTKYYLANHGIDIK |  | 5 | ~25
